Test results from publication PMC9287124.

Biological target: Shp2 (UniProt Q06124)
Test: GST pull-down from lysate, LC-MS/MS
Settings: reference: wild-type GST-PD-1ICD; sites Y223,Y248

In the case of “PD-1 ICD, 194-288 (from UniProt Q15116) PD-1ICD-FF (Y223F, Y248F)”, the “binding against the reference” value is reported as “weaker”.
